Laboratory results as given in patent US20250197490A1 (HBM ALPHA THERAPEUTICS, published 2025).
Substitutions are numbered along the chain they refer to. Where “and” joins values, the source holds several entries; their conditions need not be identical. Equal entries are not always repeated. Where two headings read alike, the source gives them in different places.

Assays:
biotinylated CRH [1] = biological target: T1, biotinylated CRH (human and mouse, UniProt P01143 145-185 (rat entry), not fully specified; biotin; which end is not stated for the result (NT-biotin and CT-biotin forms were used)); experiment: ELISA, CRH (NT biotin)
T1 construct: also called biotin-CRH; CRH (NT biotin)
T1 peptide: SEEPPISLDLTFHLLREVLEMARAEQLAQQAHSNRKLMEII

biotinylated CRH [2] = biological target: T1, biotinylated CRH; experiment: ELISA, CRH (CT biotin)
biotinylated CRH [3] = biological target: T1, biotinylated CRH; experiment: CRH ELISA, compared with PR006669
Method: (§1) Streptavidin (Thermo, Cat: 21125) was diluted in PBS to a concentration of 2 μg/ml. 100 μl of diluted streptavidin was added per well to ELISA microplates, and the plates were incubated overnight at 4° C. […] Subsequently, plates were washed and incubated with HRP-conjugated goat anti-human IgG (H+L) antibody (Jackson, Cat: 109-035-088) at 37° C. for 1 hour. 100 μL of 3,3′,5,5′-tetramethylbenzidine (TMB) substrate (Biopanda, Cat: TMB-S-003) was added, and the plates were incubated at room temperature for 15 minutes. 100 μL of ELISA stopping solution (Solarbio, Cat #: C1058) was added to terminate the reaction, and the optical density at 450 nm (OD450 nm) was determined by an ELISA plate reader (Molecular Devices, Spectra max 384 plus).

[4] = biological target: T2, corticotropin-releasing hormone (CRH) peptide (human and mouse, UniProt P01143 145-185 (rat entry), not fully specified); experiment: cell-based or functional assay
T2 peptide: T1 peptide

biotinylated CRH [5] = biological target: T1, biotinylated CRH; experiment: Octet in-tandem competition on captured CRH; row = 1st mAb; competitor (2nd mAb) PR005660
Method: (§2) SA sensors (Fortebio, Cat #18-5019) were hydrated in running buffer for 10 mins.

biotinylated CRH [6] = biological target: T1, biotinylated CRH; experiment: Octet in-tandem competition on captured CRH; row = 1st mAb; competitor (2nd mAb) PR006669
Method: as §2

biotinylated CRH [7] = biological target: T1, biotinylated CRH; experiment: Octet in-tandem competition on captured CRH; row = 1st mAb; competitor (2nd mAb) PR301777
Method: as §2

biotinylated CRH [8] = biological target: T1, biotinylated CRH; experiment: Octet in-tandem competition on captured CRH; row = 1st mAb; competitor (2nd mAb) PR302334
Method: as §2

biotinylated CRH [9] = biological target: T1, biotinylated CRH; experiment: Octet in-tandem competition on captured CRH; row = 1st mAb; competitor (2nd mAb) PR303394
Method: as §2

biotinylated CRH [10] = biological target: T1, biotinylated CRH; experiment: Octet in-tandem competition on captured CRH; row = 1st mAb; competitor (2nd mAb) PR302309-8
Method: as §2

biotinylated CRH [11] = biological target: T1, biotinylated CRH; experiment: Octet in-tandem competition on captured CRH; row = 1st mAb; competitor (2nd mAb) PR302341-34
Method: as §2

[12] = biological target: T2, corticotropin-releasing hormone (CRH) …; experiment: cell-based or functional assay
biotinylated CRH [13] = biological target: T1, biotinylated CRH; experiment: ELISA, CRH (NT biotin)
Method: as §1

biotinylated CRH [14] = biological target: T1, biotinylated CRH; experiment: ELISA, CRH (CT biotin)
Method: as §1

[15] = biological target: T3, human UCN1 peptide, biotinylated (human, UniProt P55089 83-122, biotin at N- or C-terminus); experiment: ELISA, hUCN1 (NT biotin)
T3 construct: also called hUCN1 (NT Biotin); hUCN1 (CT Biotin)
T3 peptide (looked up): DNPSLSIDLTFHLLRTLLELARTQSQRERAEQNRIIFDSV
Method: as §1

[16] = biological target: T4, N-Terminal CRH peptide (N-terminal region plus central region, CT biotin) (human and mouse, C-terminal K-Biotin); experiment: ELISA, N-Ter-CRH (CT-biotin) on streptavidin
T4 construct: also called N-Ter-CRH
T4 peptide: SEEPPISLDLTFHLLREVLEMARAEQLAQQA
Method: as §1

[17] = biological target: T5, human UCN2 peptide, biotinylated (human, UniProt Q96RP3 72-109, limits assumed, biotin at N- or C-terminus); experiment: ELISA, hUCN2 (NT biotin) and (CT biotin)
T5 construct: also called hUCN2 (NT Biotin); hUCN2 (CT Biotin)
T5 peptide (looked up): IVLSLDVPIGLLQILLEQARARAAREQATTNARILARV
Method: (§3) Streptavidin (Thermo, Cat: 21125) was diluted in PBS with a concentration of 2 μg/mL. 100 μL of diluted streptavidin was added per well to ELISA microplates, and the plates were incubated overnight at 4° C. Plates were blocked with ELISA blocking solution (containing 2% w/v BSA, 0.05% (v/v) Tween-20, pH 7.4 PBS buffer) at 37° C. for 1 hour, and then incubated with either 1 μg/mL hUCN1 (NT Biotin), hUCN1 (CT Biotin), hUCN2 (NT Biotin), hUCN2 (CT Biotin), hUCN3 (NT Biotin), or hUCN3 (CT Biotin) for 1 hour at 37° C. […] Plates were subsequently washed and incubated with HRP-conjugated goat anti-human IgG (H+L) antibody (Jackson, Cat: 109-035-088) at 37° C. for 1 hour. 100 μl of TMB Substrate (Biopanda, Cat: TMB-S-003) was added, and the plates were incubated at room temperature for 15 minutes. 100 μL of ELISA stopping solution (Solarbio, Cat #: C1058) was then added to terminate the reaction, and the OD450 nm was determined by an ELISA plate reader (Molecular Devices, Spectra max 384 plus).

[18] = biological target: T6, human UCN3 peptide, biotinylated (human, UniProt Q969E3 120-157, biotin at N- or C-terminus); experiment: ELISA, hUCN3 (NT biotin) and (CT biotin)
T6 construct: also called hUCN3 (NT Biotin); hUCN3 (CT Biotin)
T6 peptide (looked up): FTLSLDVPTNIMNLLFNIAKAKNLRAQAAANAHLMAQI
Method: as §3

[19] = biological target: T7, CRH (Central Region, NT Biotin) (N-terminal Biotin-K; C-terminal NH2); experiment: ELISA, CRH central region peptide (NT biotin)
T7 construct: also called Central CRH
T7 peptide: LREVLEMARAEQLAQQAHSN
Method: as §1

[20] = biological target: T8, CRH (Central Region, CT Biotin) (C-terminal K-Biotin); experiment: ELISA, CRH central region peptide (CT biotin)
T8 construct: also called Central CRH
T8 peptide: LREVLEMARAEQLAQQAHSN
Method: as §1

[21] = biological target: T9, CRH (C-Terminal Region, NT Biotin) (N-terminal Biotin-K; C-terminal NH2); experiment: ELISA, CRH C-terminal region peptide (NT biotin)
T9 construct: central region plus C-terminal region of CRH; also called C-Terminal CRH; C-Ter-CRH
T9 peptide: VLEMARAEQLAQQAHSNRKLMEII
Method: as §1

[22] = biological target: T2, corticotropin-releasing hormone (CRH) …; experiment: cell-based or functional assay
biotinylated CRH [23] = biological target: T1, biotinylated CRH; experiment: Octet BLI, biotinylated CRH on SA sensors

B1: PR301306 (antibody, human IgG1, kappa, V domains shown)
VH: EVKLEESGGGLVQPGGSMKLSCVASGFTFSNYWMNWVRQSPEKGLEWVAEIRLKSNNYATLYAESVKGRFTISRDDSKSSVYLQMNNLRAEDTGIYYCTRGTLVYWGQGTLVTVSA
VL: DIVLTQSPASLAVSLGQRATISCRASQSVSTSDYNYMHWYQQKPGQPPKLLIKYASNLESGVPARFSGSGSGTDFTLNIHPVEEEDTATYYCQHSWEIPYTFGGGTKLEIKR
EC50 (read off the curve) (biotinylated CRH [1]): ~0.1 nM
EC50 (read off the curve) (biotinylated CRH [2]): ~0.04 nM

B2: PR006745 (antibody, human IgG1, kappa, V domains shown)
VH: EVQLVESGGGLVQPGGSLRLSCAASGFTFSDNWMSWVRQAPGKGLEWVANIKQDASENYYVDSVKGRFTISRDNAKNSLYLQMNSLRAEDTAVYYCSRGLALWGWGQGTLVTVSS
VL: DIVMTHSPLSLPVTPGDPASISCRSSQSLLHSTGYNYLDWYLQKPGQSPQLLIYLGSNRASGVPDRFSGSGSGTDFTLKFIRVEAEDVGVYYCMQALQTPYTFGQGTKLEIKR
binding result (biotinylated CRH [3]): binds

B3: PR006746 (antibody, human IgG1, kappa, V domains shown)
VH: B2 VH with A55S
VL: B2 VL
binding result (biotinylated CRH [3]): binds

B4: PR302334 (antibody, human IgG1, kappa, V domains shown)
VH: EVKLVESGGGLVKPGGSLKLSCAASGFTFSTYAMSWVRQTPEKRLEWVASIRSGGTTYYPDSVKGRFTISRDNARNILYLQMSSLRSEDTAIYYCTRGIDWGQGTLVTVSA
VL: NIVMTQTPKFLLVSAGDRITITCKASQSVNNDVAWYQQKPGQSPKLLIYYASNRYTGVPDRFTGSGYGTDFTFTISTVQAEDLAVYFCQQDYSSWTFGGGTNLEIKR
hCRHR1-Luc 0.5 nM CRH IC50 [4]: 0.26 nM and 0.644 nM
% Inhibition (biotinylated CRH [5]): 92%
% Inhibition (biotinylated CRH [6]): 93%
% Inhibition (biotinylated CRH [7]): 90%
% Inhibition (biotinylated CRH [8]): 95%
% Inhibition (biotinylated CRH [9]): 89%
% Inhibition (biotinylated CRH [10]): 91%
% Inhibition (biotinylated CRH [11]): 88%

B5: PR302309-8 (antibody, human IgG1, kappa, V domains shown)
VH: QIQLVQSGSELKKPGASVKVSCKASGYTFTNYGMNWVRQAPGQGLEWMGWINTYTGEPIYTDDFKGRFVFSLDTSVSTAYLQISSLKAEDTAVYYCSRSTMITTGGVFAYWGQGTLVTVSS
VL: DVVMTQSPLSLPVTLGQPASISCRSSQTIVHSDGNTYLEWYQQRPGQSPRLLIYKVSNRFSGVPDRFSGSGSGTDFTLKISRVEAEDLGVYYCFQGSHVPWTFGGGTKVEIKR
hCRHR1-Luc 0.5 nM CRH IC50 [12]: 1.7 nM
EC50 (read off the curve) (biotinylated CRH [13]): ~0.03 nM
EC50 (read off the curve) (biotinylated CRH [14]): ~0.03 nM
EC50 (read off the curve) [15]: ~0.1 nM
EC50 [16]: 0.025 nM
binding result [17]: no binding (tested: 100 nM)
binding result [18]: no binding (tested: 100 nM)
binding result [19]: no binding (tested: 100 nM)
binding result [20]: no binding (tested: 100 nM)
binding result [21]: no binding (tested: 100 nM)
% Inhibition (biotinylated CRH [5]): 76%
% Inhibition (biotinylated CRH [6]): 76%
% Inhibition (biotinylated CRH [7]): 80%
% Inhibition (biotinylated CRH [8]): 65%
% Inhibition (biotinylated CRH [9]): 77%
% Inhibition (biotinylated CRH [10]): 87%
% Inhibition (biotinylated CRH [11]): 74%

B6: PR302341-67 (antibody, human IgG1, kappa, V domains shown)
VH: QVQLVQSGAEVKKPGASVKVSCKASGYTFTDYFMKWVRQAPGQGLEWMGVINPNNGDIFYNQKFKGRVTMTVDKSTSTAYMELSSLRSEDTAVYYCARGTDRALFAYWGQGTLVTVSS
VL: B5 VL with S7T, L11S, S26G, T28S, G34A, S48P, S72A, V99I
IC50 (read off the curve), CRH-induced hCRHR1 luciferase reporter [22]: ~0.2 nM

B7: PR006143 (antibody, human IgG1, kappa, V domains shown)
VH: EVQLVESGGVLVQPGGSLRLSCAASGFTFSSYWMTWVRQAPGKGLEWVANIKQEGSEKYYVDSVKGRFTISRDNAKNSLFLQMNSLRAEDTAVYYCARTLIFDYWGQGTLVTVSS
VL: DIVMTQSPLSLPVTPGEPASISCRSSQSLLHSTGYHSLEWYLQKPGQSPQLLIYLGSNRASGVPDRFSGSGSGTDFTLKISRVEAEDVGIYYCMQTLQTPITFGQGTRLEIKR
binding result (biotinylated CRH [23]): binds

B8: PR006145 (antibody, human IgG1, kappa, V domains shown)
VH: B7 VH
VL: B7 VL with H36S
binding result (biotinylated CRH [23]): binds
